T1: Dust mite allergen Der p 2 (dust mite (Dermatophagoides pteronyssinus)) (UniProt P49278)
T1 sequence (looked up): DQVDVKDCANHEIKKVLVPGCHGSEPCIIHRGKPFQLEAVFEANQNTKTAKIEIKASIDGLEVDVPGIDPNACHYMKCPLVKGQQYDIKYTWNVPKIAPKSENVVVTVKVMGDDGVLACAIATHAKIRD


Assays:
Helminth lysate [1] = assay: ELISA on helminth lysate; (+++) >100 x background
Helminth lysate [2] = assay: direct fluorescent ELISA on helminth lysate
Helminth lysate [3] = assay: ELISA on helminth lysate; (++) 10-100 x background
[4] = target: T1, Dust mite allergen Der p 2 (dust mite (Dermatophagoides pteronyssinus)); assay: direct ELISA, Der p2 coated at 5 µg/mL, two-fold dilutions of IgE, anti-human IgE secondary, OD 450 nm

Binder	fold over background (Helminth lysate [1]) [fold]	RFU (Helminth lysate [2]) [RFU]	fold over background (Helminth lysate [3]) [fold]	fold over background (times background) (Helminth lysate [2])	EC50 [4] [ng/mL]
Human IgE mAb 7G12 (antibody, V domains shown) VH: QVHLVQSGVDVKKPGASVKLSCKTSGYTFTNYGITWVRQAPGQGLEWMGWISTYDGATNYSQNLQGRIIMTTDTSKRTAYLQMRSLRSDDTAVYYCARGRDSPDHWGQGTLVTVSS VL: DIQMTQSPSTLSASVGDRVTITCRASQSINRWLAWYQQKPGTAPKLLIFKASTLDSGVPARFSGTGSETEFSLTINSLQPDDFATYYCQQYDHFPHTFGPGTKLDIK	> 100	40000	–	–	–
Human IgE mAb 11H12 (antibody, V domains shown) VH: QVQLVESGGDLVTPGGSLRLSCAASGFAFSGYYMSWIRQAPGKGLEWISYINSNGLTISYADSVKGRFTVSRDNAKNSLFLQMSSLRAEDTAIYYCARDWGTTLVTFDLWGQGTLVTVSS VL: QPVLTQSSSASASMGSSAKLTCTLSSGHRGYNIAWLQQHPGKAPLYLTNLEGSDSYKNDRLTVSSSGADRYLTISNLQPEDEATYYCFTWDSDSRVFGGGTHLTVL	–	1000	10 to 100	10	–
Human IgE mAb 1A5 (antibody, V domains shown) VH: EVQLVESGGGVVQPGRSLRLSCAGSGFTFSTYVMHWVRQAPGKGLEWVAVISYDGTNKYYADSMKGRFTISRDNSKNTLYLQLNRLRAEDTAVYYCAKTMDDSSGYYCPDYW VL: SSELTQDPAVSVALGQTVKITCQGDSLRNYFANWYQQKPGQAPVLVIYGQNNRPSGIPDRFSGSTSGNTGSLTITGAQAEDEADYYCNSRDSSGNHLYVFG	–	–	10 to 100	–	–
Human IgE mAb 2G1 (antibody) VH: EFQLVESGGGLIQPGGSLRLSCAGSGFTVTTNYMAWVRQAPGKGLEWVSTIYSAGSTFYADSVKGRFTISGDNSKNTLYLQMGSLRAEDTAVYYCARENPAQDAFDIWAKDTMVTVSSASF VL: EFSYELTQPLSVSVALGQTARITCGGNNIGSKNVHWYQQKPGLAPVLVIYRDSNRPSGIPARFSGSSSGNTATLTISSAQAGDEADYYCHVWDTSTVVFGGGTKLTVLSLPKAAPSVTLFPPSSEELQANKATLVCLISDFYPGAVTVAWKADSSPVKAGVETTTPSKQSNNKYAASSYLSLTPEQWKSHKSYSCQVTHEGSTVEKTVAPTECS	–	–	–	–	7.1
